Target: the molecule itself
Assay: crystal structure

B1: D402N nitroalkane oxidase (enzyme)
chain: MVDFKLSPSQLEARRHAQAFANTVLTKASAEYSTQKDQLSRFQATRPFYREAVRHGLIKAQVPIPLGGTMESLVHESIILEELFAVEPATSITIVATALGLMPVILCDSPSLQEKFLKPFISGEGEPLASLMHSEPNGTANWLQKGGPGLQTTARKVGNEWVISGEKLWPSNSGGWDYKGADLACVVCRVSDDPSKPQDPNVDPATQIAVLLVTRETIANNKKDAYQILGEPELAGHITTSGPHTRFTEFHVPHENLLCTPGLKAQGLVETAFAMSAALVGAMAIGTARAAFEEALVFAKSDTRGGSKHIIEHQSVADKLIDCKIRLETSRLLVWKAVTTLEDEALEWKVKLEMAMQTKIYTTDVAVECVIDAMKAVGMKSYAKDMSFPRLLNEVMCYPLFNGGNIGLRRRQMQRVMALEDYEPWAATYGSSKVDKSRL
stoichiometry N: 4 subunits

B2: S276A nitroalkane oxidase (enzyme)
chain: MVDFKLSPSQLEARRHAQAFANTVLTKASAEYSTQKDQLSRFQATRPFYREAVRHGLIKAQVPIPLGGTMESLVHESIILEELFAVEPATSITIVATALGLMPVILCDSPSLQEKFLKPFISGEGEPLASLMHSEPNGTANWLQKGGPGLQTTARKVGNEWVISGEKLWPSNSGGWDYKGADLACVVCRVSDDPSKPQDPNVDPATQIAVLLVTRETIANNKKDAYQILGEPELAGHITTSGPHTRFTEFHVPHENLLCTPGLKAQGLVETAFAMAAALVGAMAIGTARAAFEEALVFAKSDTRGGSKHIIEHQSVADKLIDCKIRLETSRLLVWKAVTTLEDEALEWKVKLEMAMQTKIYTTDVAVECVIDAMKAVGMKSYAKDMSFPRLLNEVMCYPLFDGGNIGLRRRQMQRVMALEDYEPWAATYGSSKVDKSRL
stoichiometry N: 4 subunits

Reference: publication PMC2754721 (Biochemistry, 2009)
